# In patent US20240392013A1 (STELEXIS THERAPEUTICS, published 2024):
# T1: IL1RAP on HEK-Blue IL1β / HEK-Blue IL33 reporter cells (UniProt Q9NPH3 21-570, limits assumed)
# T1 sequence (looked up): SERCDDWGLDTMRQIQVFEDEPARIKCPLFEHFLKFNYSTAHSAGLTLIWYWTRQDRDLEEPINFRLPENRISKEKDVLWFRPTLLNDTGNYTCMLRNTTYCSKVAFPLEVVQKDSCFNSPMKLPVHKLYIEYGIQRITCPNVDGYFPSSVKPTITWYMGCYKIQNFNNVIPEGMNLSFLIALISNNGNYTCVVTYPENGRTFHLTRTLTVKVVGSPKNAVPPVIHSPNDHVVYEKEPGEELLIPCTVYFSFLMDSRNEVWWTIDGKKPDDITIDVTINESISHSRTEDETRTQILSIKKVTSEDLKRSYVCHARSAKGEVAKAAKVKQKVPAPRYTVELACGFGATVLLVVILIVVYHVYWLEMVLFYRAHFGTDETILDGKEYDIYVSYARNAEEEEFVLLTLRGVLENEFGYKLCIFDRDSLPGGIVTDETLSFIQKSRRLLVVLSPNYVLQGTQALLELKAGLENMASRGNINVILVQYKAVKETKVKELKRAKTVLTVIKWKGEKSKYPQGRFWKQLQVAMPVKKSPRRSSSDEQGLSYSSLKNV
# T2: recombinant mouse IL1RAP protein (Sino Biological, Cat #52657-M08H) (mouse, UniProt Q61730 21-359)
# T2 construct: Bought protein
# T2 sequence (looked up): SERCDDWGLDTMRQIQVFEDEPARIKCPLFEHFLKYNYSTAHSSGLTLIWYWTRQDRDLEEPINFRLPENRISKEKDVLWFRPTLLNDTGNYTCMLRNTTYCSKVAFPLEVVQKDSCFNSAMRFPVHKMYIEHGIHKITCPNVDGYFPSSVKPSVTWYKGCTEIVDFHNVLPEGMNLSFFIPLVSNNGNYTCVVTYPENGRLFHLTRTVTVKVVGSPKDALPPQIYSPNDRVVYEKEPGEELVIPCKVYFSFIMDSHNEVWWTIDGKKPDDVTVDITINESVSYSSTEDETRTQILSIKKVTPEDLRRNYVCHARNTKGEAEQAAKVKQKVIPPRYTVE
# T3: cyIL1RAP-His (Lake Pharma) (cynomolgus monkey, UniProt A0A2K5X5J5 21-367)
# T3 construct: Bought protein (Lake Pharma, lot 16205819371); also called cynomolgus IL1RAP; monkey IL1RAP; not shown: His tag
# T3 sequence: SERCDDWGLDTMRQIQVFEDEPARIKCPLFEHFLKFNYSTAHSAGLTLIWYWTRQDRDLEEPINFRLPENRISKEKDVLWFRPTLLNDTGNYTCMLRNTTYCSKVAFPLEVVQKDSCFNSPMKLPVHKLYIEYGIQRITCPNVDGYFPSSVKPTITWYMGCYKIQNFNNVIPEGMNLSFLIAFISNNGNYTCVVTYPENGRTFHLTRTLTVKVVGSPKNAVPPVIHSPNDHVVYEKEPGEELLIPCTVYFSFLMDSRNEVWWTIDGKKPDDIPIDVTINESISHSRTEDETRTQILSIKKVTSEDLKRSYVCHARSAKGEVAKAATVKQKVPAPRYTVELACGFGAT
# T4: recombinant human IL1RAP protein, extracellular domain His-tagged (Sino Biological, Cat #10121-H08H) (human, UniProt Q9NPH3 21-367)
# T4 construct: extracellular domain; Bought protein; The Octet analyte is printed as huIL1RAP-His (Sino Biological, lot MB08MA1301) without a catalogue number; also called huIL1RAP-His; hIL1RAP; not shown: His tag
# T4 sequence (looked up): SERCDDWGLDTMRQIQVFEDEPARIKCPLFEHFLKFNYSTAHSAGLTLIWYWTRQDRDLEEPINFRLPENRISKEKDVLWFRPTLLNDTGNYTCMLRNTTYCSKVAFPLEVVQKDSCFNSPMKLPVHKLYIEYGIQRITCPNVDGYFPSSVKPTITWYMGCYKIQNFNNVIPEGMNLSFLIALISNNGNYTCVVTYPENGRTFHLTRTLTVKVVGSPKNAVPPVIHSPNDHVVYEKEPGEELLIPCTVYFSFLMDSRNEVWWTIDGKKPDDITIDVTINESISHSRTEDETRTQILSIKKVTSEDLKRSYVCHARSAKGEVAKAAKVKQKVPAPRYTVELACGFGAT
# How the values were obtained:
# [1] = target: T1, IL1RAP on HEK-Blue IL1β / HEK-Blue IL33 …; test: cell-based or functional assay
# [2] = target: T1, IL1RAP on HEK-Blue IL1β / HEK-Blue IL33 …; test: cell-based or functional assay; remark: listed apart in the source
# [3] = target: T2, recombinant mouse IL1RAP protein (Sino …); test: cell-free ELISA, mouse IL1RAP coated; data not shown
# Experimental: Recombinant human or mouse IL1RAP proteins (Sino Biological, Beijing, China; Cat #10121-H08H and Sino Biological, Cat #52657-M08H respectively) were diluted in PBS, pH 7.4 at concentration of 1 μg/ml, coated on high-binding 384-well clear plates and incubated overnight at 4° C. Following, plates were washed 3× with 0.05% Tween-20 in PBS, pH 7.5 and then blocked with 1% BSA in PBS for 1 hour at room temperature. After 3× washes, wells were incubated with each antibody at the highest concentration of 100 nM followed by seven serial half log dilutions (in 1% BSA and 0.05% Tween-20 in PBS) for 1 hour at room temperature. Plates were then washed 3× and incubated with […] detection antibody (Medna, TX, USA; Cat #D8212, 0.5 μg/ml diluted in 0.02% Tween-20 in PBS). After 5× washes, Supersignal ELISA Pico substrate (Thermofisher, MA, USA; Cat #37069) was applied to wells and chemiluminescent signal was read on Sprectramax L for 200 ms/well. Similarly, detection with specific κ and λ antibodies was conducted to define light chain isotyping.
# [4] = target: T3, cyIL1RAP-His (Lake Pharma); test: Octet BLI; mAb captured on anti-mouse IgG Fc sensor; cyIL1RAP-His analyte
# Experimental: (§1) Antibodies were diluted in kinetics buffer (0.1% BSA, 0.02% Tween-20 and 0.05% NaN₃ in PBS) and loaded onto 16 channel anti-mouse IgG Fc capture sensors (AMC, Cat #2001073; Sartorius, Göttingen, Germany). Human, huIL1RAP-His (Sino Biological, lot: MB08MA1301), and monkey, cyIL1RAP-His (Lake Pharma, NY, USA; lot:16205819371) proteins were titrated starting from the highest concentration of 100 nM and followed by 50 nM and 25 nM. Purified antibodies were loaded at 5 μg/ml in kinetics buffer. The experimental parameters selected to determine the kinetic constants were Baseline for 60 s, Loading of antibody to sensor for 180 s, Association of analyte to antibody for 120 s, Dissociation for 1200 s and Regeneration in 10 mM Glycine pH 1.7 for 4×30 s.
# (§2) Regeneration cycle tracking was selected for 12 cycles. Binding to human and cynomolgus IL1RAP was measured and KD (M) kinetics were calculated. Also, the disassociation rate (Kdis) (1/s) and association rate (Kon) (1/Ms) kinetics were calculated (data not shown).
# [5] = target: T4, recombinant human IL1RAP protein, …; test: Octet BLI; mAb captured on anti-mouse IgG Fc sensor; huIL1RAP-His analyte
# Experimental: as §1, §2
Binder,"IC50, HEK-BlueIL1β NFκB Reporter Assay [1]","Max % Inhibition at 200 nM, HEK-BlueIL1β NFκB Reporter Assay [1]","IC50, HEK-BlueIL33 NFκB Reporter Assay [2]","Max % Inhibition at 200 nM, HEK-BlueIL33 NFκB Reporter Assay [2]",binding result [3],Kd [4],Response [4],koff [4],kon [4],Kd [5],Response [5],koff [5],kon [5]
"STLX2030 (antibody, V domains shown, Purified from hybridoma of immunized Alivamab mice; intact IgG; captured on anti-mouse IgG Fc sensors in Octet; kappa light chain; also called 74804_30O16A) VH: QVQLVQSGAEVKRPGASVKVSCKASGYTFTGYYMHWVRQAPGQGLEWMGWINPYSGGTDYAQKFQDRVTMTRDTSISTAYMELSRLRSDDTAVYYCARSYYYYGMDVWGQGITVTVSS VL: not shown",2.31e-09 M (implied; unit not printed),98%,1.24e-08 M (implied; unit not printed),76%,no binding (tested: 100 nM),2.59 nM,0.169,0.000369 s⁻¹,143000 M⁻¹ s⁻¹,2.24 nM,0.153,0.000359 s⁻¹,160000 M⁻¹ s⁻¹
"STLX2009 (antibody, V domains shown, Purified from hybridoma of immunized Alivamab mice; intact IgG; captured on anti-mouse IgG Fc sensors in Octet; kappa light chain; also called 74804_09H05A) VH: QVQLFQSGAEVKKPGASVKVSCKASGYTFTGYYVHWVRQAPGQGLEWMGWINPNSGGTDYAQKFQGRVTMTWDTSISTAYMELSRLRSDDTAVYYCARSYYYYGMDVWGQGTTVTVSS VL: not shown",2e-09 M (implied; unit not printed),99%,1.1e-08 M (implied; unit not printed),74%,no binding (tested: 100 nM),2.87 nM,0.219,0.000408 s⁻¹,142000 M⁻¹ s⁻¹,1.64 nM,0.205,0.000272 s⁻¹,166000 M⁻¹ s⁻¹
"STLX2001N (antibody, V domains shown, Purified from hybridoma of immunized Alivamab mice; intact IgG; captured on anti-mouse IgG Fc sensors in Octet; kappa light chain; also called 74804_01N02A) VH: EVQLVQSGAEVKKPGESLKISCKGSGYSFTSYWIVWVRQMPGKGLEWMGFIYPGNSDTRYSPSFQGQVTISADQSISTAYLQWSSLKASDTATYYCARGGSYYLDYWGQGTLVTVSS VL: not shown",1.72e-09 M (implied; unit not printed),101%,1.7e-08 M (implied; unit not printed),87%,no binding (tested: 100 nM),1.23 nM,0.342,0.000413 s⁻¹,334000 M⁻¹ s⁻¹,0.803 nM,0.308,0.000233 s⁻¹,290000 M⁻¹ s⁻¹
"STLX2017 (antibody, V domains shown, Purified from hybridoma of immunized Alivamab mice; intact IgG; captured on anti-mouse IgG Fc sensors in Octet; kappa light chain; also called 74804_17E20A) VH: EVQLVQSGAEVKKPGESLKISCKGSGYSFTSYWIGWVRQMPGKGLEWMGIIWPGDSDTRYSPSFQGQVTISADKSVNTAYLQWISLKASDTAIYYCARSSGGTAMDVWGQGTTVTVSS VL: not shown",8.19e-10 M (implied; unit not printed),101%,4.82e-09 M (implied; unit not printed),80%,no binding (tested: 100 nM),0.739 nM,0.192,0.000259 s⁻¹,351000 M⁻¹ s⁻¹,0.83 nM,0.17,0.000348 s⁻¹,420000 M⁻¹ s⁻¹
"STLX2044 (antibody, V domains shown, Purified from hybridoma of immunized Alivamab mice; intact IgG; captured on anti-mouse IgG Fc sensors in Octet; lambda light chain; also called 74804_44J14A) VH: QVQLQESGPGLVKPSETLSLTCTVSGGSVFSYFWNWIRQPPVKGLEWIGYIDHSGGTNYNPSLKSRVTMSVDTSKNQFSLKLSSVTAADTAVYYCAREGLHDAFDIWGQGTLVTVSS VL: not shown",7.92e-10 M (implied; unit not printed),98%,8.12e-09 M (implied; unit not printed),73%,no binding (tested: 100 nM),1.68 nM,0.223,0.00206 s⁻¹,1.23e+06 M⁻¹ s⁻¹,1.23 nM,0.268,0.000684 s⁻¹,558000 M⁻¹ s⁻¹
"STLX2018 (antibody, V domains shown, Purified from hybridoma of immunized Alivamab mice; intact IgG; captured on anti-mouse IgG Fc sensors in Octet; kappa light chain; also called 74804_18L05A) VH: QVQLVQSGAEVKKPGASVKVSCKTSGYTFTSCCMHWVRQAPGQGLEWMGIINPSVGSTSYAQKFQGIVTMTRDTSTSTVYMELSSLRSEDTAVYYCAVDSSGSRYYYGMDVWGQGTTVTVSS VL: EIVMTQSPATLSVSPGERATLSCRASQSVRSNLAWYQQRPGQAPRLLIYGTSTRATGIPARFSGSGSGTEFTLTISSLQSEDFAVYYCQQYNYWPYTFGQGTKLEIK",1.73e-09 M (implied; unit not printed),99%,4.81e-09 M (implied; unit not printed),93%,no binding (tested: 100 nM),4.32 nM,0.168,0.000954 s⁻¹,221000 M⁻¹ s⁻¹,1.62 nM,0.17,0.00037 s⁻¹,228000 M⁻¹ s⁻¹
